Positions count from the first letter of the chain named.

Assay [1] has as its target T1, cynomolgus monkey CD3 expressed on cyno primary T cells (cynomolgus monkey, UniProt Q95LI5 22-198; Q95LI8 22-171; Q95LI7 23-181).
T1 construct: whole, on cells; CD3 complex on purified cynomolgus monkey CD3 pan T cells; also called cyno CD3
Put plainly: flow cytometry, cyno primary T cells. The method, boiled down:
(§1)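 Antibodies at 25 nM in PBS + 2% FBS were incubated with CD3-expressing cells for 30 min at 4 °C and read by flow cytometry. Median fluorescence intensity was normalized to isotype control as fold over isotype; ≥10 counted as binding.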

Assay [2] deals with T2, human CD3 expressed on cells (Jurkat cells; human primary T cells) (human, UniProt P07766 23-207; P04234 22-171; P09693 23-182).
T2 construct: whole, on cells
Put plainly: flow cytometry, Jurkat cells. As for the experimental part: (§2) Purified antibodies were confirmed to bind CD3 expressed on cells using the CytoFLEX S or LX flow cytometers (Beckman Coulter). Antibodies were diluted to 25 nM in FACS buffer (PBS+2% FBS) and were incubated with CD3-expressing cells for 30 minutes at 4° C. […] The median fluorescence intensity of the binding signal for each antibody was normalized to the isotype control to obtain a fold over isotype value. An antibody with a fold over isotype (FOI) of ≥10 was considered to be positive for binding.

The target in assay [3] is T3, human CD3 (human, UniProt P07766 23-207; P04234 22-171; P09693 23-182).
T3 construct: whole, on cells; also called CD3 on Jurkat cells; CD3 on human primary T cells
The experiment in a line: flow cytometry, human primary T cells, 25 nM antibody. How it is done:
as §2
For orientation: In flow cytometry, cells or beads pass a laser one at a time.

A further assay deals with T4, cynomolgus monkey CD3 (cynomolgus monkey, UniProt Q95LI5 22-198; Q95LI8 22-171; Q95LI7 23-181).
T4 construct: whole, on cells; CD3 on purified cynomolgus monkey CD3 pan T cells; also called cyno CD3; CD3 on cyno primary T cells
The experiment in a line: flow cytometry, cyno primary T cells. The method, boiled down:
as §1

Assay [4] addresses T3, human CD3. The experiment in a line: flow cytometry, Jurkat cells, 25 nM antibody. As for the experimental part: as §2

T1 sequence (Q95LI5 22-198, chain 1 of 3): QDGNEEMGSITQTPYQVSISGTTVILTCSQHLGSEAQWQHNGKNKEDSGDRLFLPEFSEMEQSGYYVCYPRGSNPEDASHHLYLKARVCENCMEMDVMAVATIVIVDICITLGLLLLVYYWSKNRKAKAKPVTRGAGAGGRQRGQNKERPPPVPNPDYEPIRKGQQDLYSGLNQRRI
T1 sequence (Q95LI8 22-171, chain 2 of 3): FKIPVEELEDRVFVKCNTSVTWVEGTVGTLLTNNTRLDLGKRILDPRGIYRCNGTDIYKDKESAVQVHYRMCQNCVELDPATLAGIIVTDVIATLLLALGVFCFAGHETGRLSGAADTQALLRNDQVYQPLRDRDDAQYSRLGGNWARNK
T1 sequence (Q95LI7 23-181, chain 3 of 3): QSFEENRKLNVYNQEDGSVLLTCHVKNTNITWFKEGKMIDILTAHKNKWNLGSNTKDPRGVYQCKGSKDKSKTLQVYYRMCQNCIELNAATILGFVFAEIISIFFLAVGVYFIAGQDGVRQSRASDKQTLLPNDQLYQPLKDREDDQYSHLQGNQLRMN
T2 sequence (P07766 23-207, chain 1 of 3): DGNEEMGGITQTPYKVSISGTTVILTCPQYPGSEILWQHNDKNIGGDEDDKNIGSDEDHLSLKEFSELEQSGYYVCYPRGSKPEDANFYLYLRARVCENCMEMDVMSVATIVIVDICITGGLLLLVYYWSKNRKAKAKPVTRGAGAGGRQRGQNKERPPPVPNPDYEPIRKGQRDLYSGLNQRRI
T2 sequence (P04234 22-171, chain 2 of 3): as the sequence (Q95LI8 22-171, chain 2 of 3) above, with V5I, K15N, V20I, T32S, N33D, N34I, A64T, N74S, L83V, R141H counted along it
T2 sequence (P09693 23-182, chain 3 of 3): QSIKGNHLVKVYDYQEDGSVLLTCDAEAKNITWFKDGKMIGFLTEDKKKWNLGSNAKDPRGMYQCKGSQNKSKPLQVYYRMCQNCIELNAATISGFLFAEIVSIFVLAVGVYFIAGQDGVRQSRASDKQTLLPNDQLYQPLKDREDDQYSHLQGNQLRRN
T3 sequence (P07766 23-207, chain 1 of 3): as the sequence (P07766 23-207, chain 1 of 3) above
T3 sequence (P04234 22-171, chain 2 of 3): as the sequence (Q95LI8 22-171, chain 2 of 3) above, with V5I, K15N, V20I, T32S, N33D, N34I, A64T, N74S, L83V, R141H counted along it
T3 sequence (P09693 23-182, chain 3 of 3): as the sequence (P09693 23-182, chain 3 of 3) above
T4 sequence (Q95LI5 22-198, chain 1 of 3): as the sequence (Q95LI5 22-198, chain 1 of 3) above
T4 sequence (Q95LI8 22-171, chain 2 of 3): as the sequence (Q95LI8 22-171, chain 2 of 3) above
T4 sequence (Q95LI7 23-181, chain 3 of 3): as the sequence (Q95LI7 23-181, chain 3 of 3) above

B1: mAb 185 (antibody, V domains shown)
VH: QVQLVQSGSEVKKPGASVRVSCKASGYIFTGYHIHWVRQAPGQGLEWMGWINPKSGRTSYAQNFQARVTMTRDTSINTIHMELSRLRSDDTAIYYCMRVGEQLLFDFWGQGTLVTVSS
VL: not shown
notes: VH/VL only
Consider B1, for which the binding result in assay [1] and in assay [2] was “no binding (tested: FOI <10 (FOI >=10 = positive); 25 nM)” in each case.

B2: mAb 184 (antibody, V domains shown)
VH: QVQLVESGGGVVQPGRSLRLSCAASGFTFSDYGMHWVRQAPGKGLEWVSVIWSDGLNKYYKDSVKGRFTISRDNSKNTLYLQMNSLRAADTAVYYCARLYSGSHYHYFMDVWGKGTSVTVSS
VL: DILLTQSPSFLSASVGDRVTITCRASQDISSSLAWYQQKPKKAPDLLIYTASTLQSGVPSRFSGRGSGTEFTLTISNLQPEDFATYYCQQLKNYPITFGQGTRLEIK
notes: VH/VL only
On to B2, for which the binding result in assay [1] and in assay [2] was “no binding (tested: FOI <10 (FOI >=10 = positive); 25 nM)” each time.

B3: mAb 292 (antibody, V domains shown)
VH: EVQLLESGGGLVQPGGSRRLSCAASGFTFSTYAMSWVRQAPGKGLEWVSVINGRGDDTNYADSVKGRFTISRDNSKNILFLQMNSLRAEDTAVYYCAKKYSYYYYYMDVWGKGTTVTVSS
VL: SYELTQPLSVSVALGQTARITCGGNNIGSKDVHWYQQKPGQAPVLVIYRDSNRPSGIPERFSGSNSGNTATLTISRAQAGDEADYYCQVWDSRTAVFGGGTQLTAL
notes: VH and VL only
Regarding B3, in the assay with human CD3 [3], the “Human primary T Cell Binding (FOI)” value is 255 FOI. Further, in the assay with cynomolgus monkey CD3, the binding result was “no binding (tested: FOI ≥10 = positive; 25 nM)”. Besides, in the assay with human CD3 [4], the “Jurkat Cell Binding (FOI)” value was determined as 227 FOI.

B4: mAb 289 (antibody, V domains shown)
VH: B3 VH with T31S, Y32F, N52S, G53S, D57N, I78T, F80Y
VL: B3 VL with D31N, Y35H, D50E, I74S, R93S
notes: VH/VL only
Regarding B4, the binding result in assay [1] and in assay [2] was “no binding (tested: FOI <10 (FOI >=10 = positive); 25 nM)” throughout.

B5: mAb 296 (antibody, V domains shown)
VH: EVQLLESGGGLVQPGGSLRLSCAASGFTFSSYAMSWVRQAPGKGLEWVSAISGSGGTTYYTDSVKGRFTISRDNSKNTLYLQMNSLRAEDTAVYYCAKKYSYYYYYMDVWGKGTTVTVSS
VL: B3 VL with D31N, R93S
notes: VH and VL only
Turning to B5, the “Human primary T Cell Binding (FOI)” value with human CD3 [3] came out at 183 FOI. Further, in the assay with cynomolgus monkey CD3, the binding result is listed as “no binding (tested: FOI ≥10 = positive; 25 nM)”. In addition, the “Jurkat Cell Binding (FOI)” value with human CD3 [4] was found to be 167 FOI.

B6: mAb 274 (antibody, V domains shown)
VH: QVQLVQSGAEVKKPGASVRVSCKASGYTFTGYYMHWVRQAPGQGLEWMGWIYPNSGRTNYAQKFQGRVTMTRDTSISTAYMELTRLISDDTAVYYCARLWDLYFDYWGQGTLVTVSS
VL: DIQLTQSPSFLSASVGDRVTITCRASQGISSYLAWYQQKPGKAPKLLIYAASTLQSGVPSRFSGSGSGTEFTLTISSLQPEDFATYYCQQLNSYPWTFGQGTKVEIK
notes: VH/VL only
As to B6, the binding result in assay [1] and in assay [2] was “no binding (tested: FOI <10 (FOI >=10 = positive); 25 nM)” each time.

B7: mAb 281 (antibody, V domains shown)
VH: B6 VH
VL: DIVMTQSPLSLPVTPGEPASISCRSSQSLLHYNGNNYLDWYLQKPGQSPHLLIYLGSNRASGVPDRFSGSGSGTDFTLKIIRVEAEDVGIYYCMQGLQSPYTFGQGTKLEIK
notes: VH/VL only
With B7, the binding result in assay [1] and in assay [2] was “no binding (tested: FOI <10 (FOI >=10 = positive); 25 nM)” in each case.

B8: mAb 277 (antibody, V domains shown)
VH: QVQLVQSGAAMKKPGASVKVSCKASGSTFTGYYLHWVRQAPGQGLEWMGWIYLNSGRTKYAQKFQGRVTMTRDTSINTAHMELSRLTFDDTAVYYCVRVLELIFDYWGQGTLVTVSS
VL: B6 VL
notes: VH/VL only
For the molecule B8, the binding result in assay [1] and in assay [2] was “no binding (tested: FOI <10 (FOI >=10 = positive); 25 nM)” throughout.

B9: mAb 280 (antibody, V domains shown)
VH: B6 VH
VL: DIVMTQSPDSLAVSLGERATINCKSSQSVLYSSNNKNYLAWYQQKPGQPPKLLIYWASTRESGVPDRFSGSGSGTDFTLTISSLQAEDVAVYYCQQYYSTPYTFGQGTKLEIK
notes: VH/VL only
For B9, the binding result in assay [1] and in assay [2] was “no binding (tested: FOI <10 (FOI >=10 = positive); 25 nM)” in each case.

B10: mAb 278 (antibody, V domains shown)
VH: B8 VH with N77S, V97A
VL: not shown
Turning to B10, the binding result in assay [1] and in assay [2] was “no binding (tested: FOI <10 (FOI >=10 = positive); 25 nM)” throughout.

B11: mAb 275 (antibody, V domains shown)
VH: QVQLVQSGSELKKPGASVKVSCKASGYTFTKYAMNWVRQAPGQGLEWMGWINTNTGNPTYAQGFTGRFVFSLDASVTTAYLQISSLKAEDTAVYYCAREGHYDFWGGFYYFDYWGQGTLVTVSS
VL: EIMLTQSPATLSLSPGERGTLSCRASQSVSSYLAWYQQKPGQAPRLVIYDVSNRATGIPARFSGSGSGTDFILTIGSLEPEDFAVYYCQQRSNWPLTFGGGTKVEIK
notes: VH/VL only
For B11, the binding result in assay [1] and in assay [2] was “no binding (tested: FOI <10 (FOI >=10 = positive); 25 nM)” throughout.

B12: mAb 282 (antibody, V domains shown)
VH: QVQLVQSETEVKKPGASVRVSCKASGYTFTGYYVHWVRQAPGQGLEWMGWINPKSGRTSYSQKFQDRVTMTRDTSISTVYMELSRLRSDDTAVYYCARILELIFDYWGQGTLVTVSS
VL: EIVLTQSPDFQSVTPKEKVTITCRASQSIGSSLHWYQQKPDQSPKLLIKYASQSFSGVPSRFSGSGSGTDFTLTINSLEAEDAATYYCHQSSSLPTFGPGTKVDIK
notes: VH/VL only
On to B12, for which the binding result in assay [1] and in assay [2] was “no binding (tested: FOI <10 (FOI >=10 = positive); 25 nM)” in each case.

B13: mAb 187 (antibody, V domains shown)
VH: EVQLLESGGGLVQPGGSLRLSCAASGFTFSSYAMNWVRQAPGKGLEWVSAISSSGGRTYYADSVKGRFTISRDNSKNTLYLQMNSLRAEDTAVYYCAKDSTSHPYMDVWGKGTTVTVSS
VL: AIQMTQSPSSLSASVGDRVTITCRASQGIRNDLGWYQQQPGKAPKLLIYDASSLQSGVPSRFSGSGSGTVFTLTISSLQPEDFATYFCLQDYNYPFTFGPGTKVDIK
notes: VH/VL only
For B13, the binding result in assay [1] and in assay [2] was “no binding (tested: FOI <10 (FOI >=10 = positive); 25 nM)” in each case.

B14: mAb 268 (antibody, V domains shown)
VH: QVQLVQSGSEVKKPGASVKVSCKASGYTFTGYYIHWVRQAPGQGLEWMGWINPNSGRTNYAQNFQGRVTMTRDTSITTAHMELTRLTSDDTAVYYCARLELLVFDYWGQGTLVTVSS
VL: DIQMTQSPSSLSASVGDRVTITCRASQTIYNYLNWYQQKPGKAPQVLIYAASNLQSGVPSIFSGSGSGTDFTLTITNLQPEDFATYYCQQTYSIPFTFGGGTKVEIK
notes: VH/VL only
On to B14, for which the binding result in assay [1] and in assay [2] was “no binding (tested: FOI <10 (FOI >=10 = positive); 25 nM)” in each case.

B15: mAb 269 (antibody, V domains shown)
VH: B14 VH
VL: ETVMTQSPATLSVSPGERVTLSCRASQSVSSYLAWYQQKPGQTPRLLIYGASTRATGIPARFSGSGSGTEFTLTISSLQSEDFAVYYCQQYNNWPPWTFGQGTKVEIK
notes: VH/VL only
On to B15, for which the binding result in assay [1] and in assay [2] was “no binding (tested: FOI <10 (FOI >=10 = positive); 25 nM)” each time.

B16: mAb 279 (antibody, V domains shown)
VH: B6 VH with R19K
VL: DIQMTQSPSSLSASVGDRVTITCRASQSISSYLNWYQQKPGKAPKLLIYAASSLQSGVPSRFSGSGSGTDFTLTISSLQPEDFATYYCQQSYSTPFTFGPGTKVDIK
notes: VH/VL only
On to B16, for which the binding result in assay [1] and in assay [2] was “no binding (tested: FOI <10 (FOI >=10 = positive); 25 nM)” each time.

B17: mAb 253 (antibody, V domains shown)
VH: QVTLKESGPVLVKPTETLTLTCTVSGFSLSNARMGVSWIRQPPGKALEWLTLIFSIDEKSYSTSLKSRLTISQDTSKSQVVLTVTNMDPVDTVTYFCERIETGPYYYYYYMDVWGKGTTVTVSS
VL: not shown
notes: VH/VL only
Consider B17, for which the binding result in assay [1] and in assay [2] was “no binding (tested: FOI <10 (FOI >=10 = positive); 25 nM)” each time.

B18: mAb 254 (antibody, V domains shown)
VH: B17 VH with A32S, I39L, T51I, L52F, V84M
VL: not shown
notes: VH/VL only
For B18, the binding result in assay [1] and in assay [2] was “no binding (tested: FOI <10 (FOI >=10 = positive); 25 nM)” in each case.

These data come from patent US20230295310A1 (ABCELLERA BIOLOGICS, published 2023).
